Results taken from patent US20220249685A1, “ANTI-MESOTHELIN ANTIBODIES AND IMMUNOCONJUGATES THEREOF” (Silverback Therapeutics, Inc., priority 2019, published 2022).

How the values were obtained:
[1] = Tm of purified antibodies (Table 1); assay type: physicochemical; settings: purified antibody
Protocol: Six humanized heavy chains were co-transfected with 5 humanized light chains into the ExpiCHO expression system in a 30mL culture. The supernatant was analyzed via Octet to determine off rates and any that retained binding and contained less mouse sequence, were purified and further characterized. Clones 6 and 37 were selected for further optimization. An additional mutation in CDRH2, G55A, was introduced to reduce chemical modification of the neighboring Asparagine (N) residue. These humanized sequences are represented in SEQ ID NOs. 1-15.

[2] = Analytical hydrophobic interaction chromatography (HIC) profile, incl. after 40° C. stress; assay type: physicochemical; settings: TSKgel Butyl-NPR, ammonium sulfate
[3] = test system: huPBMCs in the presence of HEK-293 cells transfected with human MSLN; experiment: TNFα production by huPBMCs with HEK-293 cells transfected with human MSLN; assay type: cell-based; settings: overnight, AlphaLISA
Protocol: Human Whole Blood was obtained from Bloodworks Northwest and collected in 10mL EDTA tubes. Human PBMCs were then isolated from the whole blood by Ficoll gradient centrifugation and resuspended in assay media (RPMI-1640 Medium supplemented with 10% Fetal Bovine Serum, 1 mM Sodium Pyruvate, 1× GlutaMAX-1, 1× Non-Essential Amino Acids, 10mM HEPES and 0.5% Penicillin/Streptomycin; all from Gibco). Tumor cells were removed from tissue culture flasks with HyQTASE (Hyclone), washed twice and resuspended in assay media.
Human PBMCs isolated as described above were resuspended in assay media, and plated in 96-well flat bottom microtiter plates (125,000/well). MSLN-expressing HEK-293cells were then added (25,000/well) along with titrating concentrations of conjugated or unconjugated antibodies. Mock transfected HEK-293 cells were used as a negative control. After overnight culture, supernatants were harvested, and TNFα levels were determined by AlphaLISA.

SS1: chimeric monoclonal anti-mesothelin antibody IgG/K; VH SEQ ID NO: 25, VL SEQ ID NO: 26
Tm ° C. [1]: 69 °C | profile on an analytical HIC column [2]: multiple variant species | TNFα production from huPBMCs [3]: did not stimulate TNFα production
